Reference: patent publication US20230357429A1 (JANUX THERAPEUTICS, published 2023)
Like-named read-outs stand apart in the source and are kept apart here. Where no end group is shown, it is not given here.

Tests used:
[1] = molecular target: T1, Human TROP2 ECD (31-274 AA), biotinylated (human, UniProt P09758 31-274, biotinylated (site not stated)); test: ELISA, Fab on captured biotin-TROP2
T1 construct: captured on neutravidin plates; also called TROP2-biotin; Trop2-biotin
T1 sequence: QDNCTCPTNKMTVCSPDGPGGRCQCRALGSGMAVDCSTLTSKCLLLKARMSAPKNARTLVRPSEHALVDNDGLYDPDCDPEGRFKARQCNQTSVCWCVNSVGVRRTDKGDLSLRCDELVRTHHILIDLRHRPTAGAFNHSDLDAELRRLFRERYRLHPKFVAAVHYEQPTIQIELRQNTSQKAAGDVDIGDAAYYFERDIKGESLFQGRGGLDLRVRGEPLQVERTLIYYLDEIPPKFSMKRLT

Peptide-46 = molecular target: T2, Peptide-46 (cysteine pairing not given here; also: biotinylated, site not given here); test: ELISA, Fab on captured biotin-peptide
T2 peptide: VEFCAIYSWPICKI

Peptide-52 = molecular target: T3, Peptide-52 (cysteine pairing not given here; also: biotinylated, site not given here); test: ELISA, Fab on captured biotin-peptide
T3 peptide: VDFCYQYAWPVCSTGD

Peptide-37 = molecular target: T4, Peptide-37 (cysteine pairing not given here; also: biotinylated, site not given here); test: ELISA, Fab on captured biotin-peptide
T4 peptide: VDFCYLYNWPVCSK

Peptide-39 = molecular target: T5, Peptide-39 (cysteine pairing not given here; also: biotinylated, site not given here); test: ELISA, Fab on captured biotin-peptide
T5 peptide: VDFCGLYHWPICYQVD

Peptide-64 = molecular target: T6, Peptide-64 (cysteine pairing not given here; also: biotinylated, site not given here); test: ELISA, Fab on captured biotin-peptide
T6 peptide: PDFCAVYRWPICYQ

Peptide-32 = molecular target: T7, Peptide-32 (cysteine pairing not given here; also: biotinylated, site not given here); test: ELISA, Fab on captured biotin-peptide
T7 peptide: PDFCYMYGWPICDS

Peptide-25 [2] = molecular target: T8, Peptide-25 (cysteine pairing not given here; also: biotinylated (site not given here)); test: ELISA, Fab on captured biotin-peptide
T8 peptide: VDFCKIYSWPVCHQ

Peptide-3 = molecular target: T9, Peptide-3 (cysteine pairing not given here; also: biotinylated, site not given here); test: ELISA, Fab on captured biotin-peptide
T9 peptide: IDFCMLYNWPICAG

Peptide-1 = molecular target: T10, Peptide-1 (cysteine pairing not given here; also: biotinylated (site not given here)); test: ELISA, Fab on captured biotin-peptide
T10 peptide: IDFCAMYQWPICDT

Peptide-18 = molecular target: T11, Peptide-18 (cysteine pairing not given here; also: biotinylated (site not given here)); test: ELISA, Fab on captured biotin-peptide
T11 peptide: MDFCQIYDWPICRL

Peptide-8 = molecular target: T12, Peptide-8 (cysteine pairing not given here; also: biotinylated, site not given here); test: ELISA, Fab on captured biotin-peptide
T12 peptide: VDFCGLYHWPICYQ

Peptide-20 = molecular target: T13, Peptide-20 (cysteine pairing not given here; also: biotinylated (site not given here)); test: ELISA, Fab on captured biotin-peptide
T13 peptide: VDFCSFYRWPICET

Peptide-10 = molecular target: T14, Peptide-10 (cysteine pairing not given here; also: biotinylated (site not given here)); test: ELISA, Fab on captured biotin-peptide
T14 peptide: IDFCAIYQWPVCRS

Peptide-28 = molecular target: T15, Peptide-28 (cysteine pairing not given here; also: biotinylated, site not given here); test: ELISA, Fab on captured biotin-peptide
T15 peptide: NYLLCVKNLYCWIV

Peptide-6 = molecular target: T16, Peptide-6 (cysteine pairing not given here; also: biotinylated, site not given here); test: ELISA, Fab on captured biotin-peptide
T16 peptide: IDFCLIYNWPVCDT

Peptide-4 = molecular target: T17, Peptide-4 (cysteine pairing not given here; also: biotinylated, site not given here); test: ELISA, Fab on captured biotin-peptide
T17 peptide: VDFCKIYAWPICGS

Peptide-13 = molecular target: T18, Peptide-13 (cysteine pairing not given here; also: biotinylated (site not given here)); test: ELISA, Fab on captured biotin-peptide
T18 peptide: VDFCELYRWPICNS

Peptide-2 = molecular target: T19, Peptide-2 (cysteine pairing not given here; also: biotinylated (site not given here)); test: ELISA, Fab on captured biotin-peptide
T19 peptide: IDFCAVYKWPVCQV

Peptide-12 = molecular target: T20, Peptide-12 (cysteine pairing not given here; also: biotinylated (site not given here)); test: ELISA, Fab on captured biotin-peptide
T20 peptide: PDFCAVYRWPICYQ

Peptide-5 = molecular target: T21, Peptide-5 (cysteine pairing not given here; also: biotinylated, site not given here); test: ELISA, Fab on captured biotin-peptide
T21 peptide: VDFCKLYNWPVCQT

Peptide-14 = molecular target: T22, Peptide-14 (cysteine pairing not given here; also: biotinylated (site not given here)); test: ELISA, Fab on captured biotin-peptide
T22 peptide: LDFCKIYDWPICHL

Peptide-27 = molecular target: T23, Peptide-27 (cysteine pairing not given here; also: biotinylated, site not given here); test: ELISA, Fab on captured biotin-peptide
T23 peptide: FSLVCVRNLYCWNV

Peptide-7 = molecular target: T24, Peptide-7 (cysteine pairing not given here; also: biotinylated, site not given here); test: ELISA, Fab on captured biotin-peptide
T24 peptide: EDFCKLYNWPICYQ

Peptide-25 [3] = molecular target: T8, Peptide-25; test: ELISA, Fab on captured biotin-peptide
Description: Binding was measured in a standard ELISA format. […] Bound TBDs were detected using a standard horse radish peroxidase conjugate secondary antibody. The ELISA signal was plotted versus the log-scale concentration of TBD. The concentrations of TBD required to observe half maximal binding signal (EC₅₀s) were calculated using Graphpad Prism software.

Peptide-31 = molecular target: T25, Peptide-31 (cysteine pairing not given here; also: biotinylated, site not given here); test: ELISA, Fab on captured biotin-peptide
T25 peptide: YSLVCVKNLYCWNL

Peptide-29 = molecular target: T26, Peptide-29 (cysteine pairing not given here; also: biotinylated, site not given here); test: ELISA, Fab on captured biotin-peptide
T26 peptide: SYLVCVKNVYCWTA

Peptide-17 = molecular target: T27, Peptide-17 (cysteine pairing not given here; also: biotinylated (site not given here)); test: ELISA, Fab on captured biotin-peptide
T27 peptide: IDFCLLYDWPICGR

B1: TBD-6 (LC I93A) (Fab, V domains shown)
VH: QVQLQQSGSELKKPGASVKVSCKASGYTFTNYGMNWVKQAPGQGLKWMGWINTYTGEPTYTDDFKGRFAFSLDTSVSTAYLQISSLKADDTAVYFCARGGFGSSYWYFDVWGQGSLVTVSS
VL: DIQLTQSPSSLSASVGDRVSITCKASQDVSIAVAWYQQKPGKAPKLLIYSASYRYTGVPDRFSGSGSGTDFTLTISSLQPEDFAVYYCQQHYATPLTFGAGTKVEIKR
notes: Fab; also called LC I93A mutant
[1]
  EC50: 0.3 nM
Peptide-46
  EC50: 102 nM
Peptide-52
  EC50: 39.3 nM
Peptide-37
  EC50: 9.3 nM
Peptide-39
  EC50: 32.1 nM
Peptide-64
  EC50: 6.4 nM
Peptide-32
  EC50: 20.1 nM
Peptide-25 [2]
  EC50: 10.9 nM
Peptide-3
  EC50: 11.4 nM
Peptide-1
  EC50: 14.8 nM
Peptide-18
  EC50: 83.2 nM
Peptide-8
  EC50: 18.8 nM
Peptide-20
  EC50: 140 nM
Peptide-10
  EC50: 8.5 nM
Peptide-28
  EC50: 681 nM
Peptide-6
  EC50: 15 nM
Peptide-4
  EC50: 15.3 nM
Peptide-13
  EC50: 21.4 nM
Peptide-2
  EC50: 9.9 nM
Peptide-12
  EC50: 18.2 nM
Peptide-5
  EC50: 9.9 nM
Peptide-14
  EC50: 145 nM
Peptide-27
  EC50: 178 nM
Peptide-7
  EC50: 59.6 nM
Peptide-25 [3]
  EC50: 38.3 nM
Peptide-31
  EC50: 791 nM
Peptide-29
  EC50: 43.8 nM
Peptide-17
  EC50: 16.5 nM
